15 sequences from the Immune Epitope Database (IEDB) can be followed below.

pKd: −log10 of the molar value.

Holding throughout (assay): IEDB peptide-MHC binding, purified MHC/competitive/radioactivity; filed as Kd, often an IC50 or EC50 that approximates it; ≥ and ≤ were set here for values at or beyond the usual limits of such assays
Assay [1] has as its target HLA-B*07:02.
The target of assay [2] is HLA-B*53:01.
Assay [3] addresses HLA-B*54:01.
The target in assay [4] is HLA-B*35:01.
The target of assay [5] is HLA-B*51:01.
Setting [6] is: source organism: Mammarenavirus guanaritoense.
[7] abbreviates: source organism: Triticum aestivum.
Setting [8] is: source organism: Vaccinia virus WR.
Setting [9] is: source organism: SARS coronavirus Tor2.
[10] abbreviates: source organism: Mammarenavirus machupoense.

Broadly, the pKd is −log10 of the Kd, conventionally taken in molar units. For CPMCCSKIL, the pKd in assay [1] (setting [6]) was 7.66; in assay [2] (setting [6]) it was 7.20; in assay [3] (setting [6]), 6.81; in assay [4] (setting [6]), 7.74; in assay [5] (setting [6]) it was 6.74.
Turning to IPEQSRCQAI, the negative-log Kd (pKd) is 7.84 in assay [1] (setting [7]); 6.28 in assay [2] (setting [7]); no more than 4.49 in assay [3] (setting [7]); 6.28 in assay [4] (setting [7]); 6.61 in assay [5] (setting [7]).
As for KPAMSTYSDI, the pKd in assay [1] (setting [8]) is 6.79; in assay [2] (setting [8]) it was 5.05; in assay [3] (setting [8]) it was 5.01; in assay [4] (setting [8]), no more than 4.20; in assay [5] (setting [8]) it was 4.85.
For KPDGSDSMDV, in that order: 6.61, no more than 4.16, no more than 4.16, no more than 4.16 and no more than 4.16.
The like results for KPDHDGNTPL were, in that order, 7.51, 5.15, no more than 4.39, 5.48 and no more than 4.16.
In the case of KPKPAVRYAI, the pKd in assay [1] (source organism: Variola virus) is 8.33; in assay [2] (source organism: Variola virus), no more than 4.16; in assay [3] (source organism: Variola virus) it was 4.90; in assay [4] (source organism: Variola virus), no more than 4.16; in assay [5] (source organism: Variola virus), no more than 4.16.
On to LPNVDLTTM, for which the pKd in assay [1] (setting [8]) is 7.26; in assay [2] (setting [8]), 9.65; in assay [3] (setting [8]), 6.14; in assay [4] (setting [8]), 9.80; in assay [5] (setting [8]), 7.21.
As for NPDQNTFPNI, the pKd was no more than 4.16 in assay [1] (setting [8]); 5.43 in assay [2] (setting [8]); no more than 4.16 in assay [3] (setting [8]); no more than 4.16 in assay [4] (setting [8]); no more than 4.47 in assay [5] (setting [8]).
With NPIQLSSYSL, the pKd is 6.38 in assay [1] (setting [9]); 6.27 in assay [2] (setting [9]); 5.75 in assay [3] (setting [9]); 6.40 in assay [4] (setting [9]); 6.61 in assay [5] (setting [9]).
Turning to QPYLQLQPF, the pKd in assay [1] (setting [7]) was 6.83; in assay [2] (setting [7]), 6.32; in assay [3] (setting [7]), 4.96; in assay [4] (setting [7]), 8.21; in assay [5] (setting [7]) it was 7.00.
Turning to RPPLNRNYV, the pKd was 7.21 in assay [1] (setting [9]); no more than 4.11 in assay [2] (setting [9]); 6.18 in assay [3] (setting [9]); no more than 4.67 in assay [4] (setting [9]); 4.99 in assay [5] (setting [9]).
Turning to SPAHLINKLL, the pKd in assay [1] (setting [8]) is 7.58; in assay [2] (setting [8]), 5.16; in assay [3] (setting [8]), 5.53; in assay [4] (setting [8]) it was no more than 4.29; in assay [5] (setting [8]), 5.27.
The like results for SPGEIKPKF were, in that order, 7.10, 6.76, no more than 4.29, 5.07 and no more than 4.15.
As for VPINVAEAY, the pKd is 4.86 in assay [1] (setting [10]); 6.69 in assay [2] (setting [10]); no more than 4.30 in assay [3] (setting [10]); 8.20 in assay [4] (setting [10]); no more than 4.24 in assay [5] (setting [10]).
As for VPTNDHIPVV, the pKd in assay [1] (setting [8]) is 6.77; in assay [2] (setting [8]), 4.92; in assay [3] (setting [8]), 9.18; in assay [4] (setting [8]) it was 4.97; in assay [5] (setting [8]) it was 7.29.
